Laboratory results taken from PMC5040590.
Values belong to the substance of their own block, whether it stands above or below them.

Legend:
[1] = target: PDZ123 domain-HaloTag fusion on HaloLink resin (PDZ123 affinity resin) (mouse) (UniProt Q62108); test: pull-down; PDZ domain-HaloTag fusions on HaloLink resin (20 µl); r-synGAP-α1 500 nM, 200 µl, 60 min, 25°C; 25 mM Tris pH 7.0, 150 mM NaCl, 1 mM MgCl2, 0.5 mM TCEP, 0.2% Tergitol, 0.5 mM EDTA; bound protein eluted, SDS-PAGE, Gel Code Blue, quantified
[2] = target: PDZ123 domain-HaloTag fusion on HaloLink resin (PDZ123 affinity resin) (UniProt Q62108); test: PDZ123 affinity resin binding (pull-down, eluate quantified); conditions: phosphorylated 0.5 min with 10 nM CaMKII, 0.7 mM CaCl2/3.4 μM CaM; resin 60 min at 25°C; n = 4; parent: est. 0.0079; read off a plot
[3] = target: calmodulin (CaM), with Ca2+ (UniProt P62157); test: SPR; CaM amine-coupled to a CM5 chip (50 RU); synGAP injected in HBS-EP+ with 10 mM CaCl2, 25°C, 100 µl/min; equilibrium analysis
[4] = target: PDZ3 of PSD-95 (residues 302-402), soluble recombinant (mouse) (UniProt Q62108); test: SPR; conventional Biacore assay: varying concentrations of r-synGAP-α1 applied to a chip with immobilised PDZ domain; one experiment
[5] = target: CaM-Sepharose 4B (calmodulin on Sepharose resin) (UniProt P62157); test: pull-down; equilibrium binding of purified synGAP (1-500 nM, 300 µl) to 50 µl CaM-Sepharose 4B, 60 min; 50 mM Tris pH 7.5, 200 mM NaCl, 5 mM TCEP, 2 mM CaCl2; bound protein by quantitative immunoblot; hyperbolic fit
[6] = target: r-synGAP-α1 (soluble, recombinant synGAP-α1, residues 103-1293) (rat); test: pull-down; as a1, with or without Ca2+/CaM during the incubation with PDZ resin (legend: 0.7 mM CaCl2/3.4 μM CaM; methods: 2.5 µM CaM and 0.5 mM CaCl2); 500 nM r-synGAP-α1, 60 min, 25°C
[7] = target: r-synGAP-α1 (soluble, recombinant synGAP-α1, residues 103-1293) (rat)
[8] = target: r-synGAP-α1 (soluble, recombinant synGAP-α1, residues 103-1293) (rat); test: SPR; 'competition in solution': 25 nM r-synGAP-α1 pre-equilibrated with 0-10 µM soluble PDZ domain; free r-synGAP-α1 captured on the same PDZ domain amine-coupled to a CM5 chip; Biacore T200, HBS-EP+, 25°C; single-site fit

Substance: r-synGAP-α1 phosphorylated by CaMKII for 0.5 min S1283D
- response (pmol r-synGAP-α1/pmol PDZ domain) [2]: 0.011

Substance: r-synGAP-α1 phosphorylated by CaMKII for 0.5 min S1123D
- response (pmol r-synGAP-α1/pmol PDZ domain) [2]: 0.0099

Substance: r-synGAP-α1 phosphorylated by CaMKII for 0.5 min S1093D; S1123D; S1283D
- response (pmol r-synGAP-α1/pmol PDZ domain) [2]: 0.014

Substance: PDZ3 of PSD-95 (residues 302-402), soluble recombinant (from UniProt Q62108 302-402) (domain or fragment)
- Kd [8]: 0.62 µM

The next lines start with the values.

- decrease of binding relative to unphosphorylated r-synGAP-α1 [1]: 40%
Substance: r-synGAP-α1 phosphorylated by PLK2 for 10 min (domain or fragment)

- amount bound per individual PDZ domain, relative to PDZ1 or PDZ2 alone [1]: 4 fold
- amount bound per individual PDZ domain, relative to PDZ3 alone [1]: 2 fold
- Kd [3]: 0.009 µM
- Kd [4]: 0.73 µM
- Kd [5]: 0.031 µM
Substance: r-synGAP-α1 (soluble, recombinant synGAP-α1, residues 103-1293) (domain or fragment)

- percent reduction of binding of r-synGAP-α1 to PDZ3 with Ca2+/CaM [6]: 25%
- rate and stoichiometry of phosphorylation of r-synGAP-α1 by CDK5/p35 or CDK5/p25 in the presence of Ca2+/CaM (0.7 mM CaCl2, 3.4 μM CaM) [7]: 2 fold
Substance: calmodulin (CaM), with Ca2+ (from UniProt P62157 1-149) (natural protein)

- response (pmol r-synGAP-α1/pmol PDZ domain) [2]: 0.0083
Substance: r-synGAP-α1 phosphorylated by CaMKII for 0.5 min S1093D; S1123D

- Kd [8]: 1.5 µM
Substance: PDZ2 of PSD-95 (residues 155-249), soluble recombinant (from UniProt Q62108 155-249) (domain or fragment)
